Measurements: the supplement of paper PMC12764529
± gives the half width of the 95% confidence interval.

assay: folding stability dG unfold (combined trypsin and chymotrypsin); higher = more stable
Procedure, shortened: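 Sequencing followed digestion of designed mini-proteins with trypsin and chymotrypsin, each at 11 concentrations in threefold dilutions together with a no-protease condition. The mini-proteins were under 80 residues, had no cysteine, sat in a PA-tagged cDNA display construct, and were kept only if AlphaFold2 dimer inter-PAE was above 15. From the counts, Bayesian fitting gave K50, and unfolding free energy was derived against a sequence-predicted unfolded-state K50 and a shared folded-state K50, per protease or combined.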

| Sequence | folding stability dG unfold [kcal/mol] |
| --- | --- |
| KVEIKVEIEVKYNKETGKKVVKIRITVKEGSKEEAEKLAAELAKELFGPNVKVTVEYDKETDEITVTLVFPS [r1_273_TrROS_Hall] | 3.96 ± 0.2 |
| SAGGSAGGAVDPALVSEETTSTSYYPDGTVVTTTTLKVPGKGTTVTLTTVTPLPPSSPSPSASLSAGGSAGG [r6_758_JUSTAS] | 0.761 ± 0.23 |
| SMTITIVVEAPPEEAKEKAEELEKELKEKLDKLREEAKKKGLSEEEIEEELKIKIKVVVVSKEDLEKLKPSA [r9_961_TrROS_Hall] | 0.431 ± 0.13 |
| SAEYTPVGPNEDAEVWEVPNLGKLFTIDPKDDVVEITEVHFDDGDLSPHPHTVRVDVPEEDRDRLRDLLSAG [r14_245_TrMRF] | -0.213 ± 0.14 |
| SAGGSEALTKNLPGVKEIKIEVEPTEVALSPELAKLLPNLPGVKFTVPSVKIDIKIEYPGTPDGTLSAGGSA [r2_404_TrMRF] | -0.053 ± 0.15 |
| SAKKPLYLIIVKIGPDGKEIVIVAESEEEARKAAEEELRKLFPDLEIKEIKIIPLEKVKTKEEALELLKSAG [r14_900_TrROS_Hall] | 1.89 ± 0.16 |
| SMMIKVKITITNEKGEEVEIEIVASPEEIEEALRKLLPPGAKVEIEKIEFYPLEELKPGDVIKITVRVKPSA [r9_803_TrROS_Hall] | 3.72 ± 0.34 |
| SAGGSAMRPLELENPNGREITIWYNPGEGHFQVEIERYEPPPNGKKKPQRHTFMVNSPEDLLDFIKSAGGSA [r15_31_TrROS] | 1.65 ± 0.19 |
| SAGGSAGGGMTPEEARALAEAAGYEDVEVTVLSRDPENNVTVVEVTARAPGGGGAASVGTYTAPSAGGSAGG [r6_699_JUSTAS] | -0.396 ± 0.18 |
| SAGGSAGGSAGGDLVITEVRVEFDPKDGTLRVTARFELPNTGETVEVTLEFEIPYPDGASAGGSAGGSAGGS [r10_296_TrMRF] | 2.85 ± 0.32 |
| SAGGSAPKEGTIWIMIPVRYERDPNGKVKPISAEQIADLFQELGFPIKIDEIFDSPGYIMIRIKVKSAGGSA [r15_225_TrROS] | 3.04 ± 0.16 |
| SAGGSAGGSKAEVVEEKEIFTFPNGFVIKLTKVKNENGEEFEFIEIVPLPPELTEEELKKLKESAGGSAGGS [r12_775_TrROS_Hall] | 1.79 ± 0.065 |
| SAMVITIHPDIPLEELAELLGFPEIEDATVEPLNEGIVPATFHIPEDPDKVILIDFNPEPDFALVLVLSSAG [r14_713_TrMRF] | 1.98 ± 0.17 |
| SAGGMVRITRDEDGILRVELFVEGTPEEAEEEAARLVRLLEELGFEEVRVEREPFGDGVVVTIEAKASAGGS [r8_113_TrMRF] | 2.74 ± 0.076 |
| SAGGDPDEIKKVIITARIYRPDPDGNIHTATIPIIIEGPLDEVIEKVAKEIEEAFGTKIVEITVEKGSAGGS [r16_511_TrMRF] | 1.36 ± 0.14 |
| SAGGMEVTFPVSPDLSPEEVRARIEAEIRPIAEARGAVDVEVPIVEYRRLPPDSVEFRFKVTVRFPRSAGGS [r8_184_JUSTAS] | 2.33 ± 0.11 |

| Sequence | folding stability dG unfold [kcal/mol] |
| --- | --- |
| SMIIKPGMSLEEVLNKIKELLKKGEKYKITVINKETGKVYEFEIDVKTKKIKVKEVTLENGEVIIKIEKVSA [r9_1059_TrROS_Hall] | 3.05 ± 0.12 |
| SAGGSAGGSAGSPVSNPEGGTITNTETLPDGKTIVNTQTIDPSKPKTTTSTTVLDPNGNAVSAGGSAGGSAG [r3_433_JUSTAS] | 1.27 ± 0.13 |
| SAGGSAGGSKEKKYLVIELKLKVPPGMSPEELAKLLESLPGLKVVEIVEVDEESGTVKIVVELSAGGSAGGS [r12_712_TrROS_Hall] | 3.07 ± 0.16 |
| SAGGSAGGSAGGKVLKIKFSSIEEILEYIKNNDSVTIVVLDENDNPIGTITVEVKPGSLSAGGSAGGSAGGS [r10_193_TrMRF] | 2.5 ± 0.092 |
| SAGGDALKGLPPGAKVKVERVNGKLVVVVEKVEVKPPPKVTLTLPPGWKLTRLELTEDGTLKAELEPSAGGS [r16_103_TrROS_Hall] | 1.79 ± 0.23 |
| SAGGSAAVTITSVPPDGTIRATATNPTNGETVTITFSPETSPEEAVAAIQKELGGPVPVTAVTPAGSAGGSA [r15_544_JUSTAS] | 1.42 ± 0.1 |
| SAGGSAGGSAGPLRPRLYRVRFTNPDGSRREFLVPEGATLEEILKRFNIPESGRVELEPVSAGGSAGGSAGG [r11_340_TrMRF] | 2.26 ± 0.082 |
| SKKPKLKIEIEIPEITNMQPDPDNGKYTMRVPFRIKIEWKDNGKEREVDIPIPMNMTVDDARDQLKDLLKSA [r9_656_TrROS] | 1.1 ± 0.13 |
| SAGGSAGGSAAKIVDINISVRRSPENGYWKIPITIRIKGPNGKEQEIDLTMVFKIPPGQPLFSAGGSAGGSA [r18_95_TrROS] | 2.9 ± 0.15 |
| SAGGSAGGSAGSPIDTLVEEKTFTLPNGEKVIEATLKRPPGEPVHVVTIETKDSVIVELESAGGSAGGSAGG [r17_316_JUSTAS] | 0.462 ± 0.049 |
| SAGGSAGGSAGMVKVKITAPPNASLDAIIKAVKDNGAEIISIERKGNELIIEVEIPEENASAGGSAGGSAGG [r11_672_TrMRF] | 1.42 ± 0.062 |
| SASLVPTEREFELPGGERLRVTTPLDPNSDTPTVTVEKFTEAPDGTVTSTTTTVPPSEVAAVLEALGLRSAG [r14_416_JUSTAS] | 0.423 ± 0.052 |
| SAHTISIRIPPNMKPITAEELKKEPGYEVKDINVYPNEDGNMYFTIEVEPGMPPKKMDEILERIRDRMGSAG [r14_421_TrROS] | 0.862 ± 0.059 |
| SAGGSAGGSAGMTVEEFTIPEVGGRVIRTTVEEPTEDGVVVRRRYLILVNPDGTVERRPESAGGSAGGSAGG [r11_911_JUSTAS] | 0.111 ± 0.092 |
| SAGGSAGGSAGKTIYAPYSKIPEVIEELKKKGYEIDSIEKVPNGSYKISFKNKPIEINLGSAGGSAGGSAGG [r17_379_TrMRF] | 3.65 ± 0.088 |
| SAGGMTIEELLKKNPELKELVKKGYVIEITYPDGKKETIKISEEDLKKILDDIKKKTNKPVEIKILPSAGGS [r16_655_TrROS_Hall] | 1.54 ± 0.32 |
